Source: patent publication US20210380703A1 (RIGEL PHARMACEUTICALS, published 2021)
Where a chain is given by its changes, count along the chain named.

B1: 368_G11 (antibody, V domains shown)
VH: EVQLLESGGGLVQPGGSLRLSCAASGFTFDSYGMHWVRQAPGKGLEWVSGINYNSGYKSYADSVKGRFTISRDNSKNTLYLQMNSLRAEDTAVYYCARAATWHDTALDYWGQGTLVTVSS
VL: DIQMTQSPSSLSASVGDRVTITCRASQSILTYLNWYQQKPGKAPKLLIYAATSRASGVPSRFSGSGSGTDFTLTISSLQPEDFATYYCQQSDNTPLTFGGGTKVEIK
notes: Group II
B2: 372_B11 (antibody, V domains shown)
VH: B1 VH with D30S, G33S, S49A, K58T, T101N, A106H
VL: B1 VL with L33V, L47V, R54L, D92Y, N93D
notes: Group I
B3: 370_H05 (antibody, V domains shown)
VH: B1 VH with D30S, G50N, S55G, K58T, A106H
VL: B1 VL with T31S, T52S, R54L, A55Q, N93S, T94L
notes: Group II
B4: 371_A05 (antibody, V domains shown)
VH: B1 VH with D30S, G50N, S55G, A106H
VL: B1 VL with T94L
notes: Group II
B5: 371_A09 (antibody, V domains shown)
VH: B1 VH with D30S, H35N, S55G, T101N
VL: B1 VL with L30V, L33V, L47V, D92Y, N93D, T94S
notes: Group I
B6: 370_E12 (antibody, V domains shown)
VH: B1 VH with S49A, S55G, K58T, A106H
VL: B1 VL with T31S, L33V, D92Y, N93E, T94N
notes: Group II
B7: 369_C09 (antibody, V domains shown)
VH: B1 VH with D30S, G50S, S55G, K58T, S59G, A106H
VL: B1 VL with L30V, T31S, L47V, A55H, D92Y, N93D, T94L
notes: Group II
B8: 369_B07 (antibody, V domains shown)
VH: B1 VH with S49A, G50N, S55G, A106H
VL: B1 VL with L30V, T31S, L33V, L47V, R54L, D92Y, N93D, T94L
notes: Group II
B9: 371_C02 (antibody, V domains shown)
VH: B1 VH with S49A, K58T, S59G, A106H
VL: B1 VL with L33V, T52S, R54L, A55Q, D92Y, N93D
notes: Group II
B10: 371_G07 (antibody, V domains shown)
VH: B1 VH with D30S, S31D, S49A, S55G, K58T, A106H
VL: B1 VL with L30V, T31S, L33V, L47V, D92Y, N93S, T94L
notes: Group II
B11: 369_A12 (antibody, V domains shown)
VH: B1 VH with D30S, G33S, S49A, G50S, K58T, S59G, A106H
VL: B1 VL with A55H, D92Y, N93D, T94L
notes: Group II
B12: 370_H08 (antibody, V domains shown)
VH: B1 VH with D30S, S49A, G50S, S55G, K58T, T101N, A106H
VL: B1 VL with T31S, L33V, A55H, D92Y, N93S, T94L
notes: Group I
B13: 370_B07 (antibody, V domains shown)
VH: B1 VH with D30S, S49A, G50N, A106H
VL: B1 VL with L33V, A55H, D92Y, N93S, T94S
notes: Group II
B14: 370_B06 (antibody, V domains shown)
VH: B1 VH with D30S, S49A, S55G, K58T, A106H
VL: B1 VL with L30V, T31S, L33V, L47V, D92Y, N93E
notes: Group II
B15: 371_D05 (antibody, V domains shown)
VH: B1 VH with S31D, S55G, K58T, A106H
VL: B1 VL with T52S, R54L, A55Q, D92Y, N93D, T94S
notes: Group II
B16: 371_D12 (antibody, V domains shown)
VH: B1 VH with H35N, S55G, T101N
VL: B1 VL with T31S, D92Y, N93E, T94L
notes: Group I
B17: 372_D07 (antibody, V domains shown)
VH: B1 VH with D30S, H35N, S49A, S55G, K58T, A106H
VL: B1 VL with T31S, D92Y, N93E, T94S
notes: Group II
B18: 369_C11 (antibody, V domains shown)
VH: B1 VH with D30S, S31D, S49A, S55G, K58T, S59G, A106H
VL: B1 VL with T31S, L47V, D92Y, N93D
notes: Group II
B19: 371_A04 (antibody, V domains shown)
VH: B1 VH with H35N, G50S, K58T, S59G, T101N
VL: B1 VL with A51V, D92Y, N93D
notes: Group I
B20: 371_B11 (antibody, V domains shown)
VH: B1 VH with D30S, G33S, S49A, G50S, K58T, A106H
VL: B1 VL with D92Y, N93E, T94L
notes: Group II
B21: 371_B02 (antibody, V domains shown)
VH: B1 VH with H35N, G50N, S55G, K58T, A106H
VL: B1 VL with L33V, L47V, R54L, D92Y, T94N
notes: Group II
B22: 371_F07 (antibody, V domains shown)
VH: B1 VH with D30S, S49A, S55G, K58T, A106H
VL: B1 VL with R54L, N93S, T94N
notes: Group II
B23: 372_E02 (antibody, V domains shown)
VH: B1 VH with D30S, H35N, S49A, G50S, S55G, K58T, T101N
VL: B1 VL with L30I, T31S, L33V, L47V, D92Y, N93D, T94L
notes: Group I
B24: 369_B03 (antibody, V domains shown)
VH: B1 VH with D30S, S49A, S55G, K58T, T101N
VL: B1 VL with L33V, L47V, R54L, D92Y, N93E, T94L
notes: Group I
B25: 369_A04 (antibody, V domains shown)
VH: B1 VH with S49A, G50S, S55G, A106H
VL: B1 VL with L30V, T31S, L33V, L47V, R54L, D92Y, N93D, T94L
notes: Group II
B26: 370_B01 (antibody, V domains shown)
VH: B1 VH with S31D, S55G, T101N
VL: B1 VL with T31S, L33V, A50V, T52S, D92Y, N93S, T94L
notes: Group I
B27: 369_H03 (antibody, V domains shown)
VH: B1 VH with D30S, G33S, S49A, G50S, T101N
VL: B1 VL with L30V, T31S, A51T, D92Y, N93D
notes: Group I
B28: 371_H02 (antibody, V domains shown)
VH: B1 VH with S31D, G33S, H35N, S55G, T101N, A106H
VL: B1 VL with L30I, T31S, L47V, R54L, D92Y, N93E, T94N
notes: Group I
B29: 369_G10 (antibody, V domains shown)
VH: B1 VH with D30S, S49A, G50S, S55G, K58T, T101N
VL: B1 VL with T31S, L47V, D92Y, N93D, T94S
notes: Group I
B30: 370_D06 (antibody, V domains shown)
VH: B1 VH with D30S, H35N, S49A, G50S, S55G, K58T, T101N, A106H
VL: B1 VL with L30I, T31S, L47V, R54L, D92Y, N93S, T94S
notes: Group I
B31: 369_E03 (antibody, V domains shown)
VH: B1 VH with D30S, S49A, S55G, K58T, A106H
VL: B1 VL with T31S, L33V, R54L, D92Y, N93E, T94N
notes: Group II
B32: 370_G04 (antibody, V domains shown)
VH: B1 VH with D30S, S55G, K58T, S59G, T101N
VL: B1 VL with T31S, L33V, D92Y, N93S
notes: Group I
B33: 369_B08 (antibody, V domains shown)
VH: B1 VH with G50S, S55G, K58T, A106H
VL: B1 VL with T31S, L33V, D92Y, N93E, T94S
notes: Group II
B34: 368_H03 (antibody, V domains shown)
VH: B1 VH with S31D, G33S, S49A, G50S, S55G, K58T, S59G, A106H
VL: B1 VL with T31S, L33V, L47V, A51V, A55H, D92Y, N93S, T94N
notes: Group II
B35: 369_C06 (antibody, V domains shown)
VH: B1 VH with D30S, G33S, G50S, S55G, A106H
VL: B1 VL with T31S, L33V, D92Y, N93D, T94S
notes: Group II
B36: 372_A09 (antibody, V domains shown)
VH: B1 VH with H35N, S55G, K58T, T101N
VL: B1 VL with T31S, L47V, D92Y, T94S
notes: Group I

Experiments:
human ACVR2A = biological target: T1, human ACVR2A (human, UniProt P27037 20-135, limits assumed); assay: ELISA
T1 construct: also called activin receptor, type II A
Summary of the method: (§1)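 mAb binding by ELISA; antigens: hu ACVR2A, mu ACVR2A; pos ctrl biotinylated goat anti-hu kappa LC; neg ctrl hu Fc.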

mouse ACVR2A = mouse ACVR2A (mouse, UniProt P27038 20-135, limits assumed); assay: ELISA
Summary of the method: as §1

[1] = biological target: T2, biotinylated goat anti-human kappa light chain; assay: ELISA, positive control
T2 construct: positive control of the ELISA
Summary of the method: as §1
Also: test concentration or dose not given here.

Chain of mouse ACVR2A (P27038 20-135 limits assumed): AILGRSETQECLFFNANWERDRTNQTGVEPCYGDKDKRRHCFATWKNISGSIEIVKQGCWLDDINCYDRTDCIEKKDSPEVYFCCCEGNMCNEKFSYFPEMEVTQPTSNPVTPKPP
T1 sequence (P27037 20-135 limits assumed): as the sequence (P27038 20-135 limits assumed) above, with R20K, I73V counted along it

| Binder | optical density (human ACVR2A) | optical density (mouse ACVR2A) | optical density [1] |
| --- | --- | --- | --- |
| B1 | 2.1 OD | 2.37 OD | 3.5 OD |
| B2 | 2.31 OD | 2.58 OD | 3.73 OD |
| B3 | 2.94 OD | 3.14 OD | 3.61 OD |
| B4 | 3.05 OD | 3.24 OD | 3.6 OD |
| B5 | 1.85 OD | 2 OD | 3.62 OD |
| B6 | 3.39 OD | 3.44 OD | 3.66 OD |
| B7 | 2.88 OD | 3.05 OD | 3.41 OD |
| B8 | 2.63 OD | 2.9 OD | 3.39 OD |
| B9 | 2.92 OD | 2.88 OD | 3.66 OD |
| B10 | 2.8 OD | 2.99 OD | 3.41 OD |
| B11 | 3.17 OD | 3.24 OD | 3.72 OD |
| B12 | 2.94 OD | 3.24 OD | 3.65 OD |
| B13 | 1.91 OD | 2.2 OD | 3.48 OD |
| B14 | 2.88 OD | 3.09 OD | 3.37 OD |
| B15 | 2.72 OD | 3.11 OD | 3.44 OD |
| B16 | 1.89 OD | 2 OD | 3.44 OD |
| B17 | 2.68 OD | 2.99 OD | 3.7 OD |
| B18 | 2.8 OD | 2.91 OD | 3.48 OD |

| Binder | optical density (human ACVR2A) | optical density (mouse ACVR2A) | optical density [1] |
| --- | --- | --- | --- |
| B19 | 1.01 OD | 1.17 OD | 3.53 OD |
| B20 | 3.18 OD | 3.26 OD | 3.59 OD |
| B21 | 2 OD | 2.28 OD | 3.59 OD |
| B22 | 2.78 OD | 2.89 OD | 3.34 OD |
| B23 | 2.84 OD | 2.74 OD | 3.58 OD |
| B24 | 3.32 OD | 3.31 OD | 3.52 OD |
| B25 | 2.76 OD | 2.86 OD | 3.5 OD |
| B26 | 3.38 OD | 3.47 OD | 3.75 OD |
| B27 | 2.83 OD | 3.08 OD | 3.47 OD |
| B28 | 1.88 OD | 2.03 OD | 3.62 OD |
| B29 | 3.37 OD | 3.29 OD | 3.49 OD |
| B30 | 2.26 OD | 2.66 OD | 3.48 OD |
| B31 | 3.15 OD | 3.36 OD | 3.37 OD |
| B32 | 1.82 OD | 2.12 OD | 3.51 OD |
| B33 | 2.75 OD | 2.88 OD | 3.29 OD |
| B34 | 2.44 OD | 2.73 OD | 3.56 OD |
| B35 | 2.75 OD | 3.06 OD | 3.17 OD |
| B36 | 2.43 OD | 2.56 OD | 3.5 OD |
